Kd data for two substances are collected here from US5760204.

Experiment [1] addresses human interleukin 5 receptor 2 HSIL5R2 (human). Put plainly: Scatchard analysis, 35S-labeled mouse IL-5 on COS7 cells transfected with pCAGGS.HSIL5R2.
The target in experiment [2] is human interleukin 5 receptor HSIL5R (human). Put plainly: Scatchard analysis, 35S-labeled mouse IL-5 on COS7 cells transfected with pCAGGS.HSIL5R.
In experiment [3] the target is murine interleukin 5 receptor encoded by pIL-5R.8 (membrane bound, low affinity IL-5R) (mouse). Description: Scatchard analysis, 35S-labeled IL-5 on COS7 cells transfected with pIL-5R.8 (CDM8 vector).
Experiment [4] concerns the target high affinity IL-5R on Y16 cells (mouse) (UniProt P21183). Description: Scatchard analysis, 35S-labeled IL-5 on Y16 cells, high affinity sites.
The target of experiment [5] is low affinity IL-5R on Y16 cells (mouse) (UniProt P21183). Put plainly: Scatchard analysis, 35S-labeled IL-5 on Y16 cells, low affinity sites.
The target in experiment [6] is murine interleukin 5 receptor encoded by pIL-5R.8 (membrane bound, low affinity IL-5R) (mouse). Put plainly: Scatchard analysis, 35S-labeled IL-5 on COS7 cells transfected with pCAGGS.5R.8.
Experiment [7] concerns the target human interleukin 5 receptor 2 HSIL5R2 (human). Description: Scatchard analysis, 125I-labeled human IL-5 on COS7 cells transfected with pCAGGS.HSIL5R2.
Experiment [8] deals with human interleukin 5 receptor HSIL5R (human). Description: Scatchard analysis, 125I-labeled human IL-5 on COS7 cells transfected with pCAGGS.HSIL5R.

On to “murine interleukin 5 (from UniProt P04401) (ligand)”, for which the dissociation constant Kd in experiment [1] came out at 0.355 nM; in experiment [2], 0.25 nM; in experiment [3], 2 nM; in experiment [4], 0.02 nM; in experiment [5] it was 5.1 nM; in experiment [6], 9.6 nM.
For “human interleukin 5 (from UniProt P05113) (ligand)”, the Kd in experiment [7] was 0.41 nM; in experiment [8] it was 0.59 nM.

What is called Kd is a measure of binding affinity in units of concentration. Higher therefore signals lower affinity.
